In patent US20100075326A1 (CORNELL UNIVERSITY, published 2010):

Columns and labels:
[1] = molecular target: T1, Botulinum neurotoxin serotype A light chain protease (BoNT/A-LC), YS2H bait fused to Aga2 with C-terminal … (yeast, UniProt P0DPI0 1-448); experiment: predicted from YS2H (flow cytometry of Myc and FLAG tags, Langmuir equation)
T1 construct: range 1-448

[2] = molecular target: T2, Botulinum neurotoxin serotype A light chain protease (BoNT/A-LC), soluble, hexahistidine tags at both termini (UniProt P0DPI0 1-448); experiment: SPR (Biacore), A-LC injected over B8-coated chip
T2 construct: range 1-448

[3] = molecular target: T2, Botulinum neurotoxin serotype A light …; experiment: SPR (Biacore), A-LC injected over B8-coated chip; remark: listed apart in the source
[4] = molecular target: T2, Botulinum neurotoxin serotype A light …; experiment: SPR (Biacore), G6 compared with B8 on A-LC
[5] = molecular target: T2, Botulinum neurotoxin serotype A light …; experiment: SPR (Biacore), A-LC injected over G6-coated chip
[6] = molecular target: T2, Botulinum neurotoxin serotype A light …; experiment: SPR (Biacore), A-LC injected over G6-coated chip; remark: listed apart in the source

B1: VHH-B8, secreted YS2H prey with C-terminal Myc tag (VHH)
VHH: HVQLQQSGGGLVQPGGSLRLSCAASGSIFSIYAMGWYRQAPGKQRELVAAISSYGSTNYADSVKGRFTISRDNAKNTVYLQMNSLKPEDTAVYYCNADIATMTAVGGFDYWGQGTQVTVSS
- Kd [1]: 38.2 nM

B2: VHH-B8, soluble, from E. coli (pET20b) (VHH)
VHH: HVQLQQSGGGLVQPGGSLRLSCAASGSIFSIYAMGWYRQAPGKQRELVAAISSYGSTNYADSVKGRFTISRDNAKNTVYLQMNSLKPEDTAVYYCNADIATMTAVGGFDYWGQGTQVTVSS
- Kd [2]: 2.3 nM
- koff [3]: 0.000518 s⁻¹
- kon [3]: 226000 M⁻¹ s⁻¹

B3: VHH-G6, secreted YS2H prey with C-terminal Myc tag (VHH)
VHH: HVQLQQSGGGLVQPGGSLRLSCAASGFTLDYYAIGWFRQAPGKEREGVSCISSSGGSTYYADSVKGRFTISRDNAKNTVYLQMNSLKPEDTAVYYCAVAQSCLRGGVRGGYWGQGTQVTVSS
- Kd [1]: 143 nM

B4: VHH-G6, soluble, from E. coli (pET20b) (VHH)
VHH: HVQLQQSGGGLVQPGGSLRLSCAASGFTLDYYAIGWFRQAPGKEREGVSCISSSGGSTYYADSVKGRFTISRDNAKNTVYLQMNSLKPEDTAVYYCAVAQSCLRGGVRGGYWGQGTQVTVSS
- fold difference in affinity against B8 [4]: 100 fold
- fold difference in association rate against B8 [4]: 3 fold
- fold difference in dissociation rate against B8 [4]: 34 fold
- Kd [5]: 230 nM
- koff [6]: 0.0182 s⁻¹
- kon [6]: 76100 M⁻¹ s⁻¹
